These results are taken from patent US20220135687A1.

The target in experiment [1] is cynomolgus PD-L1 overexpressing stable cell line (cynomolgus) (UniProt G7PSE7). As to the kind of experiment: FACS, cynomolgus PD-L1 cell line.
Experiment [2] concerns the target cynomolgus PD-L1 Fc-fusion protein (cynomolgus) (UniProt G7PSE7). The experiment is described as follows: SPR, cyno PD-L1-Fc immobilised, antibody analyte.

Sequence of Durvalumab (antibody) (VH): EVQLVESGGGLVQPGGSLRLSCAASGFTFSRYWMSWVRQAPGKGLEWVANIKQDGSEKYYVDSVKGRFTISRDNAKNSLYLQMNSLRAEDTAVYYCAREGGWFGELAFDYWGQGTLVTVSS
Sequence of Durvalumab (antibody) (VL): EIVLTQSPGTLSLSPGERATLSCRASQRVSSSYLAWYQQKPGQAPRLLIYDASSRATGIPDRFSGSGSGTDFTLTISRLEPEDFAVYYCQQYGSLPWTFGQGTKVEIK
Sequence of cynomolgus PD-L1 overexpressing stable cell line (cynomolgus) (G7PSE7 entry or part of it limits assumed): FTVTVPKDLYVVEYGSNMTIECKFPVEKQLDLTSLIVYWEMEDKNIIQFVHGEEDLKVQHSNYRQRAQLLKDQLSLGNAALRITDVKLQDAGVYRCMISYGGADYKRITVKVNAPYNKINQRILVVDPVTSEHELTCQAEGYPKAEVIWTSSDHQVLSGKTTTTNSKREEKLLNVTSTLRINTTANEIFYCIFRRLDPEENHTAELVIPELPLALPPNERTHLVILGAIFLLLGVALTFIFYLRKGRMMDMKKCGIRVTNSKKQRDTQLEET
Sequence of cynomolgus PD-L1 Fc-fusion protein (cynomolgus) (G7PSE7 entry or part of it limits assumed): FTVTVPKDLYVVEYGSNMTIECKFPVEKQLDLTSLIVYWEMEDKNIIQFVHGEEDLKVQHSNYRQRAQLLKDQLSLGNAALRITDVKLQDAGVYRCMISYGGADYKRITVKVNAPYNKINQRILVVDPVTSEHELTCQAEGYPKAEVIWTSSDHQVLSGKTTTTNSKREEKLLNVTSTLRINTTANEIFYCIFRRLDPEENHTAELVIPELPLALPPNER

The EC50 is the midpoint of the concentration-response curve. Low values mean an effect from little substance, high ones a need for much substance. The Kd is the free concentration of one partner at which half of the binding sites on the other are occupied at equilibrium, for simple one-to-one binding. A low value points to a tighter complex. For the substance Durvalumab (antibody), in experiment [1], the 50% effective concentration (EC50) was 3.07 nM and the Top (best-fit value) stood at 8220. For the same substance, the Kd in experiment [2] was 1.1 nM.
